From patent US20250312499A1, “KISSPEPTIN RECEPTOR (KISS1R) TARGETED THERAPEUTICS AND USES THEREOF” (priority 2024, published 2025)
Numbered stars: 1 amine (or outer) side, 2 acyl side, 3 side chain; on linkers, the order of the positions; unused ones are H or OH. Square brackets hold non-standard residues; d marks the D form. Primed or numbered codes have the meaning given here. Side chains are listed from the residue outwards. Ends that are not written are not given here. * marks the point of attachment. X2 = 4‑amino‑1‑((3-fluoro-4-methylbenzyl)glycyl)piperidine‑4‑carboxylic acid, Cc1ccc(CN(CC(=O)N2CCC(N[*:1])(C(=O)[*:2])CC2)[*:3])cc1F; X7 = 4‑amino‑1‑(N-methylcarbamimidoyl)piperidine‑4‑carboxylic acid, CNC(=N)N1CCC(N[*:1])(C(=O)[*:2])CC1; DOTA = O=C(O)CN1CCN(CC(=O)O)CCN(CC(=O)*)CCN(CC(=O)O)CC1; Ala(9-anthryl) = N[C@@H](Cc1c2ccccc2cc2ccccc12)C(=O)O; Bpa = N[C@@H](Cc1ccc(C(=O)c2ccccc2)cc1)C(=O)O; Api(1-amidino) = N=C(N)N1CCC(N)(C(=O)O)CC1; Phe(4-CN) = N#Cc1ccc(C[C@H](N)C(=O)O)cc1; Phe(3-F) = N[C@@H](Cc1cccc(F)c1)C(=O)O; γGlu = O=C(O)[C@H](CCC(=O)[*:2])N[*:1]; 2Nal = N[C@@H](Cc1ccc2ccccc2c1)C(=O)O; d2Nal = N[C@H](Cc1ccc2ccccc2c1)C(=O)O; εLys = N[C@@H](CCCCN[*:1])C(=O)[*:2]; Adipoyl = O=C(CCCCC(=O)[*:2])[*:1]; Palmitoyl = CCCCCCCCCCCCCCCC(=O)*; 4Pal = N[C@@H](Cc1ccncc1)C(=O)O; NH‑glycol = not defined here; 4Amb = NCc1ccc(C(=O)O)cc1; PEG4′ = not defined here; dCsA = not defined here; ABA = not defined here; Ahx = NCCCCCC(=O)O; azaGly = NNC(=O)O

target: human kisspeptin receptor (KISS1R) (human) (UniProt Q969F8); assay: radioligand competition, hKISS1R membranes; legend: A is <10 nM
Sequence (Q969F8 whole entry): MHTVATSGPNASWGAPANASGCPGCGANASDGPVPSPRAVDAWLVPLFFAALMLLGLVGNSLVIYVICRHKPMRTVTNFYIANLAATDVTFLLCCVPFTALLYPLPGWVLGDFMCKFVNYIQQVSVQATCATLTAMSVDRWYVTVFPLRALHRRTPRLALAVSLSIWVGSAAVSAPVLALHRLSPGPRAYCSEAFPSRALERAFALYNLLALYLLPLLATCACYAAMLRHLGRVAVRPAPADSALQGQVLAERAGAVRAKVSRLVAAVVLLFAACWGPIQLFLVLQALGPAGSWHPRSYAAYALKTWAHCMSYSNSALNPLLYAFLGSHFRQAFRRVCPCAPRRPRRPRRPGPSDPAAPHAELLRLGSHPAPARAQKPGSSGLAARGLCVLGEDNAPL

| Ki [nM] | Binder |
| --- | --- |
| < 10 | {DOTA}-[Ahx][dY][Bpa]NTF[azaGly]L[Api(1-amidino)]W-NH2 (SMILES CC(C)C[C@H](NC(=O)NNC(=O)[C@H](Cc1ccccc1)NC(=O)[C@@H](NC(=O)[C@H](CC(N)=O)NC(=O)[C@H](Cc1ccc(C(=O)c2ccccc2)cc1)NC(=O)[C@@H](Cc1ccc(O)cc1)NC(=O)CCCCCNC(=O)CN1CCN(CC(=O)O)CCN(CC(=O)O)CCN(CC(=O)O)CC1)[C@@H](C)O)C(=O)NC1(C(=O)N[C@@H](Cc2c[nH]c3ccccc23)C(N)=O)CCN(C(=N)N)CC1) [Compound 183] |
| < 10 | {DOTA}-[Ahx][dY][d2Nal]NTF[azaGly]L[Api(1-amidino)]Y-NH2 (SMILES CC(C)C[C@H](NC(=O)NNC(=O)[C@H](Cc1ccccc1)NC(=O)[C@@H](NC(=O)[C@H](CC(N)=O)NC(=O)[C@@H](Cc1ccc2ccccc2c1)NC(=O)[C@@H](Cc1ccc(O)cc1)NC(=O)CCCCCNC(=O)CN1CCN(CC(=O)O)CCN(CC(=O)O)CCN(CC(=O)O)CC1)[C@@H](C)O)C(=O)NC1(C(=O)N[C@@H](Cc2ccc(O)cc2)C(N)=O)CCN(C(=N)N)CC1) [Compound 185] |
| < 10 | {DOTA}-[Ahx][dY][Ala(9-anthryl)]NTF[azaGly]L[Api(1-amidino)]W-NH2 (SMILES CC(C)C[C@H](NC(=O)NNC(=O)[C@H](Cc1ccccc1)NC(=O)[C@@H](NC(=O)[C@H](CC(N)=O)NC(=O)[C@H](Cc1c2ccccc2cc2ccccc12)NC(=O)[C@@H](Cc1ccc(O)cc1)NC(=O)CCCCCNC(=O)CN1CCN(CC(=O)O)CCN(CC(=O)O)CCN(CC(=O)O)CC1)[C@@H](C)O)C(=O)NC1(C(=O)N[C@@H](Cc2c[nH]c3ccccc23)C(N)=O)CCN(C(=N)N)CC1) [Compound 184] |

target: human kisspeptin receptor (KISS1R) (human), Q969F8; assay: as above
Sequence (Q969F8 whole entry): as above

| Ki [nM] | Binder |
| --- | --- |
| < 10 | Palmitoyl-[γGlu]K([PEG4′-DOTA])[dY][dW]NTF[azaGly]L[X2]W-NH2 [Compound 119] |
| < 10 | {HO‑PEG3‑C(:O)}-[dY]K(DOTA)NT[Phe(3-F)][azaGly]L[X2]W-NH2 [Compound 64] |
| < 10 | {DOTA-Ahx}-[dY]N[dW]NTF[azaGly]L[X2][4Pal]-NH2 (SMILES Cc1ccc(CNCC(=O)N2CCC(NC(=O)[C@H](CC(C)C)NC(=O)NNC(=O)[C@H](Cc3ccccc3)NC(=O)[C@@H](NC(=O)[C@H](CC(N)=O)NC(=O)[C@@H](Cc3c[nH]c4ccccc34)NC(=O)[C@H](CC(N)=O)NC(=O)[C@@H](Cc3ccc(O)cc3)NC(=O)CCCCCNC(=O)CN3CCN(CC(=O)O)CCN(CC(=O)O)CCN(CC(=O)O)CC3)[C@@H](C)O)(C(=O)N[C@@H](Cc3ccncc3)C(N)=O)CC2)cc1F) [Compound 106] |
| < 10 | {DOTA-Ahx}-[dY][dW]NTF[azaGly]L[4‑amino‑1‑((4-methoxybenzyl)glycyl)piperidine‑4‑carboxylic acid]F-NH2 [Compound 140] |
| < 10 | {DOTA-Ahx}-F[azaGly]L[X2]W-NH2 (SMILES Cc1ccc(CNCC(=O)N2CCC(NC(=O)[C@H](CC(C)C)NC(=O)NNC(=O)[C@H](Cc3ccccc3)NC(=O)CCCCCNC(=O)CN3CCN(CC(=O)O)CCN(CC(=O)O)CCN(CC(=O)O)CC3)(C(=O)N[C@@H](Cc3c[nH]c4ccccc34)C(N)=O)CC2)cc1F) [Compound 2] |
| < 10 | {DOTA-4Amb}-F[azaGly]L[X2]W-NH2 (SMILES Cc1ccc(CNCC(=O)N2CCC(NC(=O)[C@H](CC(C)C)NC(=O)NNC(=O)[C@H](Cc3ccccc3)NC(=O)c3ccc(CNC(=O)CN4CCN(CC(=O)O)CCN(CC(=O)O)CCN(CC(=O)O)CC4)cc3)(C(=O)N[C@@H](Cc3c[nH]c4ccccc34)C(N)=O)CC2)cc1F) [Compound 109] |
| < 10 | [dY][dW]NTF[azaGly]L[X2]W-NH2 (not fully specified (N-terminus); also: N-terminal Lys linked through its epsilon amine to adipoyl, which acylates D-Tyr1) [Compound 117] |
| < 10 | {DOTA-Ahx}-[dY][dW]NTF[azaGly]L[X7]W-NH2 (SMILES CNC(=N)N1CCC(NC(=O)[C@H](CC(C)C)NC(=O)NNC(=O)[C@H](Cc2ccccc2)NC(=O)[C@@H](NC(=O)[C@H](CC(N)=O)NC(=O)[C@@H](Cc2c[nH]c3ccccc23)NC(=O)[C@@H](Cc2ccc(O)cc2)NC(=O)CCCCCNC(=O)CN2CCN(CC(=O)O)CCN(CC(=O)O)CCN(CC(=O)O)CC2)[C@@H](C)O)(C(=O)N[C@@H](Cc2c[nH]c3ccccc23)C(N)=O)CC1) [Compound 91] |
| < 10 | {DOTA-4Amb-Met-Val-εLys-Adipoyl}-F[azaGly]L[X2]W-NH2 [Compound 132] |
| < 10 | {DOTA-NH‑glycol}-[dY][2Nal]NTF[azaGly]L[X2]W-NH2 (reading uncertain) [Compound 58] |
| < 10 | {DOTA-Ahx}-[dY][dW]NAF[azaGly]L[X2]L-NH2 (SMILES Cc1ccc(CNCC(=O)N2CCC(NC(=O)[C@H](CC(C)C)NC(=O)NNC(=O)[C@H](Cc3ccccc3)NC(=O)[C@H](C)NC(=O)[C@H](CC(N)=O)NC(=O)[C@@H](Cc3c[nH]c4ccccc34)NC(=O)[C@@H](Cc3ccc(O)cc3)NC(=O)CCCCCNC(=O)CN3CCN(CC(=O)O)CCN(CC(=O)O)CCN(CC(=O)O)CC3)(C(=O)N[C@@H](CC(C)C)C(N)=O)CC2)cc1F) [Compound 113] |
| < 10 | {DOTA-Ahx}-F[azaGly]L[X2]F-NH2 (SMILES Cc1ccc(CNCC(=O)N2CCC(NC(=O)[C@H](CC(C)C)NC(=O)NNC(=O)[C@H](Cc3ccccc3)NC(=O)CCCCCNC(=O)CN3CCN(CC(=O)O)CCN(CC(=O)O)CCN(CC(=O)O)CC3)(C(=O)N[C@@H](Cc3ccccc3)C(N)=O)CC2)cc1F) [Compound 55] |
| < 10 | {DOTA-Ahx}-[dY][dW]NTF[azaGly]L[X2][Phe(4-CN)]-NH2 (SMILES Cc1ccc(CNCC(=O)N2CCC(NC(=O)[C@H](CC(C)C)NC(=O)NNC(=O)[C@H](Cc3ccccc3)NC(=O)[C@@H](NC(=O)[C@H](CC(N)=O)NC(=O)[C@@H](Cc3c[nH]c4ccccc34)NC(=O)[C@@H](Cc3ccc(O)cc3)NC(=O)CCCCCNC(=O)CN3CCN(CC(=O)O)CCN(CC(=O)O)CCN(CC(=O)O)CC3)[C@@H](C)O)(C(=O)N[C@@H](Cc3ccc(C#N)cc3)C(N)=O)CC2)cc1F) [Compound 104] |
| < 10 | {DOTA-Ahx}-[dY][dH][dW]NTF[azaGly]L[X2][4Pal]-NH2 (SMILES Cc1ccc(CNCC(=O)N2CCC(NC(=O)[C@H](CC(C)C)NC(=O)NNC(=O)[C@H](Cc3ccccc3)NC(=O)[C@@H](NC(=O)[C@H](CC(N)=O)NC(=O)[C@@H](Cc3c[nH]c4ccccc34)NC(=O)[C@@H](Cc3c[nH]cn3)NC(=O)[C@@H](Cc3ccc(O)cc3)NC(=O)CCCCCNC(=O)CN3CCN(CC(=O)O)CCN(CC(=O)O)CCN(CC(=O)O)CC3)[C@@H](C)O)(C(=O)N[C@@H](Cc3ccncc3)C(N)=O)CC2)cc1F) [Compound 107] |
| < 10 | {DOTA-Met-Val-εLys-Adipoyl}-[dY][dW]NTF[azaGly]L[X2]W-NH2 [Compound 133] |
| < 10 | {DOTA-ABA}-F[azaGly]L[X2]W-NH2 (reading uncertain) [Compound 50] |
| < 10 | {DOTA}-KF[azaGly]L[X2]W-NH2 [Compound 37] |
| < 10 | {DOTA-Ahx}-[dY][azaGly]NTF[azaGly]L[X2]W-NH2 (SMILES Cc1ccc(CNCC(=O)N2CCC(NC(=O)[C@H](CC(C)C)NC(=O)NNC(=O)[C@H](Cc3ccccc3)NC(=O)[C@@H](NC(=O)[C@H](CC(N)=O)NC(=O)NNC(=O)[C@@H](Cc3ccc(O)cc3)NC(=O)CCCCCNC(=O)CN3CCN(CC(=O)O)CCN(CC(=O)O)CCN(CC(=O)O)CC3)[C@@H](C)O)(C(=O)N[C@@H](Cc3c[nH]c4ccccc34)C(N)=O)CC2)cc1F) [Compound 108] |
| < 10 | {DOTA-NH‑glycol}-[dY][dW]NTF[azaGly]L[X2]W-NH2 (reading uncertain) [Compound 57] |
| < 10 | {DOTA-Ahx}-[dY][dW]NTF[azaGly]L[X2][4Pal]-NH2 (SMILES Cc1ccc(CNCC(=O)N2CCC(NC(=O)[C@H](CC(C)C)NC(=O)NNC(=O)[C@H](Cc3ccccc3)NC(=O)[C@@H](NC(=O)[C@H](CC(N)=O)NC(=O)[C@@H](Cc3c[nH]c4ccccc34)NC(=O)[C@@H](Cc3ccc(O)cc3)NC(=O)CCCCCNC(=O)CN3CCN(CC(=O)O)CCN(CC(=O)O)CCN(CC(=O)O)CC3)[C@@H](C)O)(C(=O)N[C@@H](Cc3ccncc3)C(N)=O)CC2)cc1F) [Compound 105] |
| < 10 | {DOTA-dCsA-Ahx}-[dY][dW]NTF[azaGly]L[X2]W-NH2 (not fully specified; reading uncertain) [Compound 115] |
